Among the data in paper PMC7241105 are Kd values, retold here.

This assay deals with SARS-CoV-2 receptor binding domain (RBD) (SARS-CoV-2) (UniProt P0DTC2). The assay is described as follows: BLI. (Biolayer interferometry detects binding as a change in optical thickness at a sensor tip.)

Take CV30 (antibody): the Kd (commonly the free concentration of one partner at which half of the binding sites on the other are occupied at equilibrium, for simple one-to-one binding) amounted to 3.6 nM.
